Measurements as given in the domain aggregation screens of Martell et al. (2025).

Experiment: soluble fraction after stress (log2 fold change); higher = more stays soluble; pooled small domains, quantitative proteomics
Settings: stress: pH 4
Method in brief: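 Custom libraries of small protein domains were pooled and exposed to pH 4. High-throughput quantitative proteomics then measured the log2 fold change in the amount of each domain still soluble, with higher values meaning more stayed soluble. This soluble-fraction fold change stands for aggregation propensity.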

HMGTTKGVVDVTVPNGRASQHVKLVVIDDDGGRVVYDGTNAPGDRIVKSVSGSGNVRVQIYLNNALVQEQS
soluble fraction (log2): -0.306

HMGTTMLEVPNFVGEVFKEIDPEKYPNLRLVDSDYTYSNEYEAGKVISQDPVARTQVAEGSTVKLVIS
soluble fraction (log2): -0.249

HMGTVISVDKARSIALAKVPGASANDIRIHLDRDDGRQIYEGEIYYNRMEYEFEIDASTGTIIEWSAEHW
soluble fraction (log2): 0.00283

HMGTVQSVDRALLLLSEIGREPGGLVDLSTRVRLATSTTGRILATLEHAGAVVRGDDGIYHIGPLVHGMVS
soluble fraction (log2): 0.0724

HMGTYSKQDLLQLIGRYPDGIGKREINLAFSKGTKIRNLLNIELNELLNERLITLSQGGLYIKP
soluble fraction (log2): ≥ 0.43

HMGVAFAPVEKIKHTKTGNELYAVKLAGRVEAEVFGQLRQKAKEYDGYYSKFSRAFLFSTPEDAEAFRAE
soluble fraction (log2): 0.276

HMGVDIAEHDGQPAVSIRKGAAESVAQWVKDQGGTFPQEVEMTVQNVARAGGTPLVVARGRDVLGVIYLKD
soluble fraction (log2): -0.281

HMGVDKLTPREREVLALMAQGASNREIEGKLVLTAGAVSKHVANVFMKLGFSPEDENRRVKAVLAWLRTK
soluble fraction (log2): 0.225

HMGVGIEALAVEVDRIRQVLTGGGALSDIQLFSQLKALGEVKTALSSMTDPRARELEKRVAQLLEASLRT
soluble fraction (log2): -0.323

HMGVKHKHKGAGELLAALRTMFPNSSVSTLRKMLTQGRVVLNGEVVHRAKHELTDGDTIEVLERQRAER
soluble fraction (log2): 0.228

HMGVKIELNENEQAIFAAMQKQVEAVLPDLRAQFADMSNKAWDNSVKTLTKNNLLKVSKEAEILFIRL
soluble fraction (log2): -1.09

HMGVKTDKYYYQMATETRVNKHYGLSNQYIATLISEYPRSPLIPNASILSKKNNADLALIDQSINQR
soluble fraction (log2): 0.155

HMGVLSPRQSQILALVAQGLGNREIAERLHIAPTTARDHVQAIMRRLNVNSRAAAAVMGVKLGLI
soluble fraction (log2): 0.085

HMGVNEGVNKLFKTIQETPGKRMPYYALATDVPEKTIERWLKQLREEGKIEFKGSAKTGGYFVIDK
soluble fraction (log2): 0.22

HMGVRDIRIFERNNSFFVNAEIRGEAQLSVPITRTDYQLFKENKIDALSLVEKYYAEELNASNEMK
soluble fraction (log2): 0.155

HMGVSLNELAYRRFKQALVTLSYKPGEYLNTAQVMNDLDMGRTPINQAIHRLANEGLLQVIPRKGVMVS
soluble fraction (log2): 0.026

HMGVTDLFAVLGFPRSPWLDAEELKQRHHALMADEASANSSPTILNEARRTLQNPALRIRHFLALEFPDH
soluble fraction (log2): -0.82

HMGVYDLIYLGYGINVEKEELVDQNISIIRRYANIFDPNGDIKGSTNPTYASNTAVLFNEAKFIIDGYD
soluble fraction (log2): -1.79

HMGWQPDPLTTRERLVAELATQASNAQIAEQLHLSVRTVEGHLAHVYTKLGITTRRELPAALAGAR
soluble fraction (log2): -2.8e-05

HMGWTTPAGIAVGMDKSVLQDAYGKEDDTFQDKGILYYQYFVHPSRMSGLSFGIKNDKIVSITAYMD
soluble fraction (log2): -1.23

HMGYDDLEPFDANGRLRWSDQELVLAFGRHRGATLRTLELNDPSYLRWLLSGNGPLEQQDIQRLEQILES
soluble fraction (log2): -1.44

HMGYDLLFQQALGFHEQGRLNEAENIYRQILETAPNNPDILNLLGLIAQQKGLHAQAVDYFYQAIRL
soluble fraction (log2): -1.9

HMGYDVAEVKFRLIKLLRDSKIGISGVEISERLGINRVTMTKYLNIFSAEGVIGEKNIGNVNLWFVYEGIE
soluble fraction (log2): -0.186

HMGYQLSLEAQSQLKALGLTSEYITRILDEADNRQPIPGTSRTVYSLNGYQVEFSHSDQQVIRIARG
soluble fraction (log2): -0.262

HMGYSDEIGEFIKKLRTENHLTQKEFADKYGVTYQAVSKWENGKNLPDMSLIKQMSEDFNIGIDELLDGEK
soluble fraction (log2): -0.454

HMGYTLDVAHGVTEDMNFSEAFATAREEVGPGGIFYWHGKPYGTYYENEWNAMDEEDKAEYWDAVGRTTA
soluble fraction (log2): -0.508

HMHANSDVEQLMQMGIQRLNFQRYSDALLIFNQIIENFPDYAEAWNKRATLHYLLGNLDKSIADIEQTLE
soluble fraction (log2): -1.54

HMHAPIAELKKVFKEEFADQEVTVRQLAGSVLLSGNVKTAELRENLESVAKQFFPRVINNLKLI
soluble fraction (log2): 0.0685

HMHDAKAEIIRLSALLTEYQRSYYIDGHSQVSDLEYDRLFDRLVALETSHPELREADSPTQRV
soluble fraction (log2): -1.14

HMHDAKTQLQEEAARRGLPAPVYTRIGQEGPDHAPRFRVRADVGPHQAEAVAGSLKLAQAEAARAILRQMP
soluble fraction (log2): 0.28

HMHDITPAVAETFKQLRAERGLSLSQAAQLTGVSKAMLGQIERGQSSPTVSTLWKIATGFNVAFSVFL
soluble fraction (log2): -0.309

HMHDLGEQIIEKLRASGGISTLTDKSDPDAIYRQFKVSKKKYKQALGTLYKSRRITLAPNQIKLA
soluble fraction (log2): 0.22

HMHDPLATLTPREHEVMSLMAEGRTNAAIAQALVIGTGAVEKNVTSIFQKLGLDDSGTDHRRVLAVLAWLQ
soluble fraction (log2): -1.18

HMHDRRSGKVKWYSDRKGYGFIDLDGGEVFIHRSALIAFGALRLQAEDIITITVRETDRGLVVDQLFGIER
soluble fraction (log2): -1.63

HMHEAILNQIRNEELMLYIGELSDAQQDVILLKYFHQMTFKEIAESFSIPISTVKTRHTAALKKLSTLWK
soluble fraction (log2): 0.0907

HMHESLAEVAARKLRALIVTGELAPGERVTEAGLTDLLEISRTPAREAIRILSSEGLLVVFPNRGAEVV
soluble fraction (log2): -0.815

HMHEYSDIEHRILDAAREVFIRKGYDSATMGDIALLAGMSRTSVNYYFRNKERLFEAIFEEII
soluble fraction (log2): -1.25

HMHFDQILAHAMDERGMNAVQLASLTGLSSGAISRYLAGDRQPTVYSIQQIAKALGVSADYLVG
soluble fraction (log2): 0.22

HMHGEAEFLDATAVVMEKLNPGGLVKIKGEIWQAVSKDGHTIQEGEKVRVFERQGITLLVGHF
soluble fraction (log2): -0.223

HMHGTIHSAAYGGDIEAVKKFLAAGADVNANGGGRTPLDLAIQVKNTEIADLLRKHGGKTGDELKA
soluble fraction (log2): 0.398

HMHGYLSDPAARLIRARRKTLSIRITQEGNLEIRAPLGMPKGEIEAFLKEKAQWIETHRAKVLAEYA
soluble fraction (log2): -0.138

HMHHDQQQITAELARIARNGLPGLTADNAIISRLDALNLLINIHDDRGADATPLRGLLPAIADELLRLT
soluble fraction (log2): 0.0087

HMHHIDTAWFRGKMREHRLTQEAVGQAIGLERSMVSKIIKGTVSFNARKASAWAQLLRVSESEILERVGI
soluble fraction (log2): -0.379

HMHHIDYKQLRRINPVAARRAVLDYLESTGGNITKTAQVFSINRSVVYDILKKQASGDLSDRLRIP
soluble fraction (log2): 0.249

HMHIDQVIRERRLALGLTQEELANKIGVSAPAVSKWEKRVSYPDITLLPALARILGTDVNTLLTFS
soluble fraction (log2): -0.309

HMHIVQEGDSLYGIARQYRITVEELRSLNALETADVIVPYQKLYV
soluble fraction (log2): -1.14

HMHKPLRILVYEELRMLIMTGQIKPGTRMMEIDLAESMGVSRTPVREAIRQLEKDNLVTIEPRRGAYVSD
soluble fraction (log2): -0.761

HMHKYQVGETVYYTSPTFGRAAATGSYIVVKLLPSEGDDYQYRIKSSGEAFERVAKESQLDR
soluble fraction (log2): 0.11

HMHLIPRESTYEIDGRRFVVDSVNLDFGKVSLQDITFRNATGFPIFRSESIEFMRRLVEISEAQRIAEL
soluble fraction (log2): -0.114

HMHLPDNAVSIISELKMTPEEVLELIGKLPHDFLFLPYSQRKKIIVDLIPNKDYKLLMSLIKKFML
soluble fraction (log2): -0.536

HMHLTRYQYKVETEQEAVGLKELSSVHDLQIKENEATFQADSDAIDEILKTLLLYGVKKLEATPPTLED
soluble fraction (log2): -1.05

HMHMSLTEKYKELTDLAVSAGVQNLNVREQDGVLYVDGDASGAVKQQLWDTYGKLDPDYTSGDLVLNI
soluble fraction (log2): -0.696

HMHNSPSPVATTILRFLQPVRAFVGDTEDMRTFGPFLREDVAMVPASQAKNLIRSGHAVEINP
soluble fraction (log2): -0.173

HMHNSQTIIDNIKRIANEQNISLSKLAVISGLGKNTITSMTAKTNIKIETLTAIAKSLNVSIHDLTGE
soluble fraction (log2): 0.0739

HMHPDHRTATVPDAAAGRRFDAVLAELFPQFSRSKLTTWIKSGEVLLNGEVPRPRDAVVGGETVSLNVVL
soluble fraction (log2): ≥ 0.43

HMHPMVEAYLADLDRALSGSDPREHAETMSAVREHLADAIAPDATAEQVRHALDELGPVEAIAAG
soluble fraction (log2): -0.239

HMHPQISVEGVLPLKEAVEFVEREIISHAYSRYRATREVARHLGIDPSTVLRKAAKYGITVEPGKN
soluble fraction (log2): -0.372

HMHPRDREENKYLLLRGERIYEESIGEKRLYVEAALHKYEKALSSYDTGLIDEAKEEFKKFLEEIEEA
soluble fraction (log2): -0.438

HMHPVEPDDPDQHILFQHLRGQDQVHIDALIRLSGWTADKVSSTLLFMELQGLVKQLPGMYYALE
soluble fraction (log2): -1.07

HMHQAADFAGFITFNKDGVEQFSFGKYKNQTVVSVLEKDPGYYSWIQNADFPLYTKKILTAIRLAM
soluble fraction (log2): -0.0054

HMHQALLEQSAEHAQQVKAYELLLTAERALDEENTEAFLSAMKSLKPLAENLDAKGKALYQELLPFVTEA
soluble fraction (log2): -0.425

HMHQAVTVTKPARLFTGPDGKGVVRSLDVGMMLYPTGEKQGMMWEVEDELGNKGWVSSTLLELS
soluble fraction (log2): 0.197

HMHSEEAALLHRYIDSLEEPQHTVVVMRDIGGYSFEEIASVVQLKEAHIWMILSRARRKLRELYIKTMDHH
soluble fraction (log2): -0.101

HMHSFFGDNIKKLRTAKKMSQEQLADIFGITKAGISYWETGRSEPNFATVQKLADFFGVTTSDLLGEA
soluble fraction (log2): 0.187

HMHSFGLHVRNLRKKSNLTLSQLSNASGLSLSAISKIENNQISPSFINLIRLAEGLKMHIADLVTVK
soluble fraction (log2): -0.254

HMHSGFHSAILDVDRAVKEGKTLYEALNKYPYIFDETFRSLVRAGEASGELPSILSKLALYLEEQSK
soluble fraction (log2): -1.04

HMHSLLDDIPNVGEKRKRILLTHFQSLEEIKAATVEELERLPQINRKAAESIYTFFHSQPIR
soluble fraction (log2): 0.139

HMHSRLEDIPGIGPRRRAMLLRHFGGLAELKAAGVEEIARVEGINMALAQRLWRALHGVPDPT
soluble fraction (log2): 0.343

HMHSVIALTIPADYAGLRLDQALAKLLPNWSRSRLQTWIAENRVILDGQITTIKQKVWGNELIQISPQD
soluble fraction (log2): -0.252

HMHTDQVLVMTRAVGQGEIVRNTDVGLTSVAVDRAVTTIPASQLDEIVGRHALVDLSAGQLLGSHSVGA
soluble fraction (log2): -0.0551

HMHTNNALWAIADDMRARKDDGEFDTYREGYKWAANNIVKEGIHITAIKLEKAYHKAKSEGKV
soluble fraction (log2): 0.301

HMHVSIAENIRRIRTQHDMTQEEFGKVAAVSAMAVSQWENGRAVPRMGAVQRIADYFNISKGEVID
soluble fraction (log2): 0.121

HMHWDIAQADAKQEVMDSSDDKEAIERIQANMFKDPKDHDQEYANKILNDMIDEIKEKGLEAMQHKFAQE
soluble fraction (log2): ≥ 0.43

HMHYELTPDAEKQLSALGLTAELVERILEEANDRRPIPGTNRTVYSLHGYSVEFSNTNHKIVSVRKG
soluble fraction (log2): 0.343

HMIAAPFVVKDIRVDGVQPATGEAIISSLPVKVGQTATDADVSNVVRQLFSLNRFQNVQATREGNTLVIKV
soluble fraction (log2): 0.0417

HMIAGHLQIKNDYYYMVLSYTDSDGKRKQPWIPTGLPMKGNKKRAEKMLIETRQTYVPPVSSG
soluble fraction (log2): 0.203
